The values that follow come from patent US20100061979A1.

The target of experiment [1] is FGF-2 (UniProt P09038). The experiment in a line: BIAcore, two-state reaction with conformation change model.
Experiment [2] addresses FGF-2 (UniProt P09038). The experiment in a line: BIAcore.

Usually Kd stands for the constant that tells how readily two partners part at equilibrium. Higher therefore signals lower affinity.

Chain of UniProt P09038 (P09038 143-288 limits assumed): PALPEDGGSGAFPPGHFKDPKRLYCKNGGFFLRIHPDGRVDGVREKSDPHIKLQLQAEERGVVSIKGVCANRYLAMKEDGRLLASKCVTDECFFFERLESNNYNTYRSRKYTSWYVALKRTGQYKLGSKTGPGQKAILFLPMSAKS

In the case of “sFGFR2-Fc variant 4493 (no Ig-like domain 1) (from UniProt P21802 126-377) (Fc fusion)”, the dissociation constant (Kd) with FGF-2 [1] and with FGF-2 [2] was 1.19 nM in each case.
